Laboratory results taken from US20190016813A1 (APROGEN KIC, published 2019).
Substitutions are numbered along the chain they refer to. Names may count otherwise.

Tests used:
[1] = biological target: T1, human CD43 (JL-1 antigen) on cells (human, UniProt P16150 20-400); assay: staining of CEM7 cells, fluorescence intensity (FIG. 34)
T1 construct: also called leukosialin; sialophorin
T1 sequence: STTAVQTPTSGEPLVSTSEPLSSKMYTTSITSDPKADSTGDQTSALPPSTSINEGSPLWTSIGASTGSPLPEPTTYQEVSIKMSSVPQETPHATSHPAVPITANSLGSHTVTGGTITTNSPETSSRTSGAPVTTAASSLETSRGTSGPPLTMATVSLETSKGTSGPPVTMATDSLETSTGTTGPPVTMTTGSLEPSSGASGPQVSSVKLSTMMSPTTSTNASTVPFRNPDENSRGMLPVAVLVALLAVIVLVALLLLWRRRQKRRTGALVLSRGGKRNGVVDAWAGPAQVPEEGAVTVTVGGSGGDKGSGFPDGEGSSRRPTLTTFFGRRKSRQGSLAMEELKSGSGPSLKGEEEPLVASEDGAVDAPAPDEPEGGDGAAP

[2] = biological target: T1, human CD43 (JL-1 antigen) on cells; assay: binding to CD43 positive CEM7 cells (FIG. 45)
[3] = biological target: T1, human CD43 (JL-1 antigen) on cells; assay: immunofluorescence on Molt-4 cells, antibody 50 ug/ml, no human serum

B1: humanized anti-CD43 antibody 257-10 (antibody, IgG1, V domains shown)
VH: QVQLVQSGAEVKKPGASVKVSCKASGYTFNGYFMNWVRQAPGQGLRWMGRINPNNGDSFYNQKFQGRVTMTRDTSTSTVYMEPSSLRSEDTAVYYCAREGYYGGRGYALDYWGQGTLVTVSS
VL: DTQMTQSPSSVSASVGDRVTITCRTSQDISNYLNWYQQKPGKAPKLLIYNTSRLHSGVPSRFSGSGSGTDFTLTISSLQPEDFATYYCQQSNMFPYTFGQGTKLEIKR
modifications: glycosylated in the light chain variable region (N50-T-S52 motif; Concanavalin A blot)
binding result [1]: binds

B2: modified humanized anti-CD43 antibody, light chain N50Q (antibody, V domains shown)
VH: B1 VH
VL: DTQMTQSPSSVSASVGDRVTITCRTSQDISNYLNWYQQKPGKAPKLLIYQTSRLHSGVPSRFSGSGSGTDFTLTISSLQPEDFATYYCQQSNMFPYTFGQGTKLEIK
binding result [2]: binds

B3: humanized anti-CD43 antibody 456-D10 (antibody, V domains shown)
VH: B1 VH with R46E, W47R, P83L, S84P
VL: B1 VL with K39E
notes: tested as humanized IgG
binding result [1]: binds

B4: modified humanized anti-CD43 antibody, light chain N50A (antibody, V domains shown)
VH: B1 VH
VL: B2 VL with Q50A
notes: also called modified humanized antibody removing glycosylation
binding result [2]: binds

B5: mouse anti-CD43 monoclonal antibody (ART140 JL1) (antibody, human IgG1, kappa, V domains shown)
VH: EVQLQQSGPELVKPGASVKISCKASGYSIGGYFMNWVKQSHGKSPEWIGRINPNNGDSFYNQKFKGTATLTVDRSSDTVHMEVLSLTSEDSAVYYCGREGYYGGRGYALDYWGQGTSVTVSS
VL: DIQMTQTTSSLSASLGDRVTISCRTSQDISNYLNWYQQKPDGTVKLLIYNTSRLHSGVPSRFSGSGSGTDYSLTIRNLEQKDIATYFCQQSNMFPYTFGGGTKLEIKR
notes: also called mouse anti-JL-1 antibody; mJL-1
binding result [3]: binds
